What follows are substances tested against HLA-A*02 (Homo sapiens, UniProt P04439, D140Y/D185E/D98H/E176V/E277Q/G131W/G231S/I119V/I121R/I166T/I218V/N151K/N90K/P208A/P217A/Q86G/Q94H/R138H/R169H) (assay: UV-ligand exchange / peptide binding to MHC class I (beta2m ELISA)). Settings: Table 10A; peptide exchange yield, UV-ligand exchange, β2m ELISA.
Description: Candidate peptides for T cell based therapies according to the present invention were further tested for their MHC binding capacity (affinity). The individual peptide-MHC complexes were produced by UV-ligand exchange, where a UV-sensitive peptide is cleaved upon UV-irradiation, and exchanged with the peptide of interest as analyzed. Only peptide candidates that can effectively bind and stabilize the peptide-receptive MHC molecules prevent dissociation of the MHC complexes. To determine the yield of the exchange reaction, an ELISA was performed based on the detection of the light chain (β2m) of stabilized MHC complexes. The assay was performed as generally described in Rodenko et al. (Rodenko B, Toebes M, Hadrup S R, van Esch W J, Molenaar A M, Schumacher T N, Ovaa H. Generation of peptide-MHC class I complexes through UV-mediated ligand exchange. Nat Protoc. 2006; 1(3):1120-32).
96 well MAXISorp plates (NUNC) were coated over night with 2 ug/ml streptavidin in PBS at room temperature, washed 4× and blocked for 1 h at 37° C. in 2% BSA containing blocking buffer. Refolded HLA-A*0201/MLA-001 monomers served as standards, covering the range of 15-500 ng/ml. Peptide-MHC monomers of the UV-exchange reaction were diluted 100 fold in blocking buffer. Samples were incubated for 1 h at 37° C., washed four times, incubated with 2 ug/ml HRP conjugated anti-β2m for 1 h at 37° C., washed again and detected with TMB solution that is stopped with […]. Absorption was measured at 450 nm. Candidate peptides that show a high exchange yield (preferably higher than 50%, most preferred higher than 75%) are generally preferred for a generation and production of antibodies or fragments thereof, and/or T cell receptors or fragments thereof, as they show sufficient avidity to the MHC molecules and prevent dissociation of the MHC complexes.

| Substance | Peptide exchange (MHC class I binding score) |
| --- | --- |
| 220 (SLLEKELESV; listed as Homo sapiens) [compound 220] | +++ (50%-75% = +++) |
| 221 (ALCEENMRGV; listed as Homo sapiens) [compound 221] | +++ (50%-75% = +++) |
| 223 (FLFNTENKLLL; listed as Homo sapiens) [compound 223] | ++++ (>=75% = ++++) |

Same assay, conditions: Table 10B; peptide exchange yield; HLA-A*02 peptides

| Substance | Peptide exchange (MHC class I binding score) |
| --- | --- |
| 147 (GLAPGGLAVV; listed as Homo sapiens) [compound 147] | “+++” (≥50 = +++) |
| 148 (GLFAPLVFL; listed as Homo sapiens) [compound 148] | “++++” (≥75% = ++++) |
| 149 (GLLSGLDIMEV; listed as Homo sapiens) [compound 149] | “++++” (≥75% = ++++) |
| 150 (GLSNLGIKSI; listed as Homo sapiens) [compound 150] | “++++” (≥75% = ++++) |
| 151 (HLAKVTAEV; listed as Homo sapiens) [compound 151] | “+++” (≥50 = +++) |
| 152 (KLDNNLDSV; listed as Homo sapiens) [compound 152] | “+++” (≥50 = +++) |
| 154 (KLTDHLKYV; listed as Homo sapiens) [compound 154] | “+++” (≥50 = +++) |
| 156 (LLFPHPVNQV; listed as Homo sapiens) [compound 156] | “++++” (≥75% = ++++) |
| 157 (QLLPNLRAV; listed as Homo sapiens) [compound 157] | “+++” (≥50 = +++) |
| 158 (RIISGLVKV; listed as Homo sapiens) [compound 158] | “++” (≥20% = ++) |
| 159 (RLFPDGIVTV; listed as Homo sapiens) [compound 159] | “+++” (≥50 = +++) |
| 160 (RLLAKIICL; listed as Homo sapiens) [compound 160] | “++” (≥20% = ++) |
| 161 (RLLDEQFAV; listed as Homo sapiens) [compound 161] | “+++” (≥50 = +++) |
| 162 (RLMSALTQV; listed as Homo sapiens) [compound 162] | “++” (≥20% = ++) |
| 163 (RLTESVLYL; listed as Homo sapiens) [compound 163] | “+++” (≥50 = +++) |
| 164 (RMLIKLLEV; listed as Homo sapiens) [compound 164] | “+++” (≥50 = +++) |
| 165 (RVIEHVEQV; listed as Homo sapiens) [compound 165] | “++++” (≥75% = ++++) |
| 166 (SILDIVTKV; listed as Homo sapiens) [compound 166] | “+++” (≥50 = +++) |
| 167 (SLAESSFDV; listed as Homo sapiens) [compound 167] | “+++” (≥50 = +++) |
| 168 (SLAVLVPIV; listed as Homo sapiens) [compound 168] | “+++” (≥50 = +++) |
| 169 (SLFEWFHPL; listed as Homo sapiens) [compound 169] | “+++” (≥50 = +++) |

| Substance | Peptide exchange (MHC class I binding score) |
| --- | --- |
| 170 (SLHNGVIQL; listed as Homo sapiens) [compound 170] | “+++” (≥50 = +++) |
| 171 (SLIPAVLTV; listed as Homo sapiens) [compound 171] | “+++” (≥50 = +++) |
| 172 (SLLNFLQHL; listed as Homo sapiens) [compound 172] | “+++” (≥50 = +++) |
| 173 (SLTSEIHFL; listed as Homo sapiens) [compound 173] | “+++” (≥50 = +++) |
| 174 (TLAELGAVQV; listed as Homo sapiens) [compound 174] | “+++” (≥50 = +++) |
| 175 (TLFEHLPHI; listed as Homo sapiens) [compound 175] | “+++” (≥50 = +++) |
| 176 (TLGQIWDV; listed as Homo sapiens) [compound 176] | “++++” (≥75% = ++++) |
| 177 (VLDEPYEKV; listed as Homo sapiens) [compound 177] | “+++” (≥50 = +++) |
| 178 (YIFTTPKSV; listed as Homo sapiens) [compound 178] | “+++” (≥50 = +++) |
| 179 (YIHNILYEV; listed as Homo sapiens) [compound 179] | “++++” (≥75% = ++++) |
| 180 (YLGPHIASVTL; listed as Homo sapiens) [compound 180] | “+++” (≥50 = +++) |
| 181 (YLLEKFVAV; listed as Homo sapiens) [compound 181] | “+++” (≥50 = +++) |
| 182 (YLLHFPMAL; listed as Homo sapiens) [compound 182] | “+++” (≥50 = +++) |
| 183 (YLYNNEEQVGL; listed as Homo sapiens) [compound 183] | “++” (≥20% = ++) |
| 184 (VVLDGGQIVTV; listed as Homo sapiens) [compound 184] | “+++” (≥50 = +++) |
| 185 (ALFPALRPGGFQA; listed as Homo sapiens) [compound 185] | “+++” (≥50 = +++) |
| 186 (VLLAQIIQV; listed as Homo sapiens) [compound 186] | “+++” (≥50 = +++) |
| 220 (SLLEKELESV; listed as Homo sapiens) [compound 220] | “+++” (≥50 = +++) |
| 221 (ALCEENMRGV; listed as Homo sapiens) [compound 221] | “+++” (≥50 = +++) |
| 222 (LTDITKGV; listed as Homo sapiens) [compound 222] | “++” (≥20% = ++) |
| 223 (FLFNTENKLLL; listed as Homo sapiens) [compound 223] | “++++” (≥75% = ++++) |

| Substance | Peptide exchange (MHC class I binding score) |
| --- | --- |
| 229 (KMFESFIESV; listed as Homo sapiens) [compound 229] | “+++” (≥50 = +++) |
| 231 (RLFNDPVAMV; listed as Homo sapiens) [compound 231] | “++++” (≥75% = ++++) |
| 233 (ALLGKLDAI; listed as Homo sapiens) [compound 233] | “++++” (≥75% = ++++) |
| 234 (YLEPYLKEV; listed as Homo sapiens) [compound 234] | “++++” (≥75% = ++++) |
| 235 (KLFEEIREI; listed as Homo sapiens) [compound 235] | “++++” (≥75% = ++++) |
| 236 (ALADKELLPSV; listed as Homo sapiens) [compound 236] | “+++” (≥50 = +++) |
| 237 (ALRGEIETV; listed as Homo sapiens) [compound 237] | “+++” (≥50 = +++) |
| 238 (AMPPPPPQGV; listed as Homo sapiens) [compound 238] | “++” (≥20% = ++) |
| 239 (FLLGFIPAKA; listed as Homo sapiens) [compound 239] | “+++” (≥50 = +++) |
| 240 (FLWERPTLLV; listed as Homo sapiens) [compound 240] | “+++” (≥50 = +++) |
| 241 (FVLPLLGLHEA; listed as Homo sapiens) [compound 241] | “++” (≥20% = ++) |
| 242 (GLFAPVHKV; listed as Homo sapiens) [compound 242] | “+++” (≥50 = +++) |
| 243 (GLLDNPELRV; listed as Homo sapiens) [compound 243] | “+++” (≥50 = +++) |
| 244 (KIAELLENV; listed as Homo sapiens) [compound 244] | “++++” (≥75% = ++++) |
| 245 (KLGAVFNQV; listed as Homo sapiens) [compound 245] | “++++” (≥75% = ++++) |
| 246 (KLISSYYNV; listed as Homo sapiens) [compound 246] | “+++” (≥50 = +++) |
| 247 (KLLDTMVDTFL; listed as Homo sapiens) [compound 247] | “++++” (≥75% = ++++) |
| 248 (KLNDLIQRL; listed as Homo sapiens) [compound 248] | “+++” (≥50 = +++) |
| 249 (LLLGERVAL; listed as Homo sapiens) [compound 249] | “++++” (≥75% = ++++) |
| 250 (NLAEVVERV; listed as Homo sapiens) [compound 250] | “++++” (≥75% = ++++) |
| 251 (RLFADILNDV; listed as Homo sapiens) [compound 251] | “++++” (≥75% = ++++) |
